The values that follow come from patent US20250262210A1 (TRUSTEES OF COLUMBIA UNIVERSITY IN THE CITY OF NEW YORK, published 2025).

The target of one test is T1, LZTR1 R810W-FLAG (human, UniProt Q8N653 1-840).
T1 construct: Stably expressed in U87 cells by lentivirus; also called LZTR1-FLAG-R810W; LZTR1 RW; not shown: FLAG tag
T1 sequence (looked up): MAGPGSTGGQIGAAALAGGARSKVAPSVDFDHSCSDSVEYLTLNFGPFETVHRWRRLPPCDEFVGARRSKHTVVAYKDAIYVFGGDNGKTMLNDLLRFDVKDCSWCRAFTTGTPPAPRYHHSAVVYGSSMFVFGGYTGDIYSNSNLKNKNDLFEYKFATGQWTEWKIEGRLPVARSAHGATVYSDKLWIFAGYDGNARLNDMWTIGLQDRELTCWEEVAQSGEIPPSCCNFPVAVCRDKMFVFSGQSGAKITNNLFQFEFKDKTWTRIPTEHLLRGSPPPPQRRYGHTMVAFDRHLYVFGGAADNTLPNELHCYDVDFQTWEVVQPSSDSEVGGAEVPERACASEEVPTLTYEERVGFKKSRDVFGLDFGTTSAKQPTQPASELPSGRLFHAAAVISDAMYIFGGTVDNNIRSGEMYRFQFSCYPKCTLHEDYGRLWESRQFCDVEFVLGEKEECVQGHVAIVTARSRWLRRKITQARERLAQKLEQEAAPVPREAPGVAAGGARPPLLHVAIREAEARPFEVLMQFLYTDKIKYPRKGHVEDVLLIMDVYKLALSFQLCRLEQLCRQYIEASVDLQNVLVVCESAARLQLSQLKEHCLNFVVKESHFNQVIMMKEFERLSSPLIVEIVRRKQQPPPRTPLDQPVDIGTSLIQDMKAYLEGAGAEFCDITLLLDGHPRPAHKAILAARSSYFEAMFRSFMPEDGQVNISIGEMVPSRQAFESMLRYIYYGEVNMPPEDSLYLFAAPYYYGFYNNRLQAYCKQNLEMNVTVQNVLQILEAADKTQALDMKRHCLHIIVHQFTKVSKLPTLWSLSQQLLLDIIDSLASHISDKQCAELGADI
The experiment in a line: IP/MS, LZTR1 R810W-FLAG, U87. The essentials:
(§1)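 Gel slices were reduced with 5 mM DTT, alkylated with 11 mM IAA and digested overnight at 37° C. with trypsin. Peptides were analysed on an Orbitrap Fusion Tribrid by LC-MS/MS.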

Another test has as its target T2, LZTR1-FLAG (human, UniProt Q8N653 1-840).
T2 construct: Expressed in HEK 293T, HeLa or U87 cells; used as cell lysate; also called LZTR1 wild type-FLAG; LZTR1 WT; not shown: FLAG tag at the C-terminus
T2 sequence (looked up): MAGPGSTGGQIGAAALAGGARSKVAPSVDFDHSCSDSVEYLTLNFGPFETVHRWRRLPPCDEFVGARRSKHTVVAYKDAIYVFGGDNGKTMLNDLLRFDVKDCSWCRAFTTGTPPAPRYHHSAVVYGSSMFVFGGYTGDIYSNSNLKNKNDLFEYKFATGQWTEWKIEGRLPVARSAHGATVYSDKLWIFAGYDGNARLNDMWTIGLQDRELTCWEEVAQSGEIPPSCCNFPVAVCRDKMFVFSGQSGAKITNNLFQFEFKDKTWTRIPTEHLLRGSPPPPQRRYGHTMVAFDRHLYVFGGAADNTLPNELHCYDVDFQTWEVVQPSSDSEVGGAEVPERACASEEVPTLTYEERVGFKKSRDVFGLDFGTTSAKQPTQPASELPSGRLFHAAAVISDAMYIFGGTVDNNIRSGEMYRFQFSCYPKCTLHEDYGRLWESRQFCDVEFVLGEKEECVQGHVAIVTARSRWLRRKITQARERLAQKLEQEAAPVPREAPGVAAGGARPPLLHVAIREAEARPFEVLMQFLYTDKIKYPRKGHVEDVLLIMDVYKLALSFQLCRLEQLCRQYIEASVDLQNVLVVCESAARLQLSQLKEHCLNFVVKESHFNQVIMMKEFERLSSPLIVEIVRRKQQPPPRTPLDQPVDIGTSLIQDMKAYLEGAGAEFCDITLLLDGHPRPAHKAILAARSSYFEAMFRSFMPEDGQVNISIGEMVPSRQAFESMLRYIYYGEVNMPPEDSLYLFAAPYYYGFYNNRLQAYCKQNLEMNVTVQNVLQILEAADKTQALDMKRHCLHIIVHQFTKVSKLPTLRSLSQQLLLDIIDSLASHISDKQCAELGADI
The experiment in a line: IP/MS, LZTR1 wild type-FLAG, U87. The essentials: as §1

B1: YME1L1 (other, human, UniProt Q96TA2 1-773, looked up)
chain: MFSLSSTVQPQVTVPLSHLINAFHTPKNTSVSLSGVSVSQNQHRDVVPEHEAPSSECMFSDFLTKLNIVSIGKGKIFEGYRSMFMEPAKRMKKSLDTTDNWHIRPEPFSLSIPPSLNLRDLGLSELKIGQIDQLVENLLPGFCKGKNISSHWHTSHVSAQSFFENKYGNLDIFSTLRSSCLYRHHSRALQSICSDLQYWPVFIQSRGFKTLKSRTRRLQSTSERLAETQNIAPSFVKGFLLRDRGSDVESLDKLMKTKNIPEAHQDAFKTGFAEGFLKAQALTQKTNDSLRRTRLILFVLLLFGIYGLLKNPFLSVRFRTTTGLDSAVDPVQMKNVTFEHVKGVEEAKQELQEVVEFLKNPQKFTILGGKLPKGILLVGPPGTGKTLLARAVAGEADVPFYYASGSEFDEMFVGVGASRIRNLFREAKANAPCVIFIDELDSVGGKRIESPMHPYSRQTINQLLAEMDGFKPNEGVIIIGATNFPEALDNALIRPGRFDMQVTVPRPDVKGRTEILKWYLNKIKFDQSVDPEIIARGTVGFSGAELENLVNQAALKAAVDGKEMVTMKELEFSKDKILMGPERRSVEIDNKNKTITAYHESGHAIIAYYTKDAMPINKATIMPRGPTLGHVSLLPENDRWNETRAQLLAQMDVSMGGRVAEELIFGTDHITTGASSDFDNATKIAKRMVTKFGMSEKLGVMTYSDTGKLSPETQSAIEQEIRILLRDSYERAKHILKTHAKEHKNLAEALLTYETLDAKEIQIVLEGKKLEVR
Consider B1, for which the binding result with LZTR1 R810W-FLAG and with LZTR1-FLAG was “binds” in each case.

B2: ZC3HC1 (other, human, UniProt Q86WB0 2-502, looked up)
chain: AAPCEGQAFAVGVEKNWGAVVRSPEGTPQKIRQLIDEGIAPEEGGVDAKDTSATSQSVNGSPQAEQPSLESTSKEAFFSRVETFSSLKWAGKPFELSPLVCAKYGWVTVECDMLKCSSCQAFLCASLQPAFDFDRYKQRCAELKKALCTAHEKFCFWPDSPSPDRFGMLPLDEPAILVSEFLDRFQSLCHLDLQLPSLRPEDLKTMCLTEDKISLLLHLLEDELDHRTDERKTTIKLGSDIQVHVTACILSVCGWACSSSLESMQLSLITCSQCMRKVGLWGFQQIESSMTDLDASFGLTSSPIPGLEGRPERLPLVPESPRRMMTRSQDATFSPGSEQAEKSPGPIVSRTRSWDSSSPVDRPEPEAASPTTRTRPVTRSMGTGDTPGLEVPSSPLRKAKRARLCSSSSSDTSSRSFFDPTSQHRDWCPWVNITLGKESRENGGTEPDASAPAEPGWKAVLTILLAHKQSSQPAETDSMSLSEKSRKVFRIFRQWESLCSC
Turning to B2, the binding result in the test with LZTR1 R810W-FLAG and in the test with LZTR1-FLAG was “binds” in each case.
